Assay results taken from article PMC3253524 (Biochemical Journal, 2011).

Tests used:
[1] = biological target: T1, GST–human PPARγ (full-length PPARγ–GST fusion protein) (human, UniProt P37231 1-505); assay: pull-down
T1 sequence (looked up): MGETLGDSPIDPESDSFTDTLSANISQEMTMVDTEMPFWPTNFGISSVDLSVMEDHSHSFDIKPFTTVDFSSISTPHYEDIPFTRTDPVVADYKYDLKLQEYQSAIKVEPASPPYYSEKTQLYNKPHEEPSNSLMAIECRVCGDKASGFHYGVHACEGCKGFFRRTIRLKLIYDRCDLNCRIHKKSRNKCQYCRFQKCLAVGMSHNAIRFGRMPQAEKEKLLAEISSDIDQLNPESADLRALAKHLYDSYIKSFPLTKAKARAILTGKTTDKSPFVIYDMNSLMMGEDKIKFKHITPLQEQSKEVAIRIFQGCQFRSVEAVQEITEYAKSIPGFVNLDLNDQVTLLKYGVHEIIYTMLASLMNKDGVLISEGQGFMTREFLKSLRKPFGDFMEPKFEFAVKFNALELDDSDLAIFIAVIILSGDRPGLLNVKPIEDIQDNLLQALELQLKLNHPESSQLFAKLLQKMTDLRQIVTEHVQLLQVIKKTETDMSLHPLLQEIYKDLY

[2] = biological target: T1, GST–human PPARγ (full-length PPARγ–GST …); assay: pull-down; remark: listed apart in the source

B1: SRC-1-S2, a truncated SRC-1 (steroid receptor co-activator-1) protein (amino acids 623–770) (domain or fragment, human, UniProt Q15788 623-770, looked up)
chain: DSKYSQTSHKLVQLLTTTAEQQLRHADIDTSCKDVLSCTGTSNSASANSSGGSCPSSHSSLTERHKILHRLLQEGSPSDITTLSVEPDKKDSASTSVSVTGQVQGNSSIKLELDASKKKESKDHQLLRYLLDKDEKDLRSTPNLSLDD
Q: B1 was tested. Which “fold binding relative to the vehicle control, with 50 μM FPP” value [1] did it give?
A: The value was 6.1 fold.

Q: What about the “fold binding relative to the vehicle control, with 100 μM FPP” value [1] of the same binder?
A: Its value is 15 fold.

Q: And the “fold binding relative to the vehicle control, with 50 μM Pio” value [2]?
A: Its value is 17 fold.
